Experimental data taken from US20230340555A1, “PRODUCTION OF GLYCOSYLATED CANNABINOIDS” (WILLOW BIOSCIENCES, INC., priority 2020, published 2023).

Tested on: CN3 yeast strain host cells
Test: Detection of glycosylated cannabinoids and cannabinoid precursors in yeast cells expressing UDP-glycosyl transferase (HPLC-MS)
Format: cell-based
Parameters: key to CBDA-glc / OLA-glc / CBGA-glc / CBGA-(glc)2 / CBD-glc / CBD-(glc)2 / OLA-(glc)2 / CBGA-glucuronic acid: (+) represents the lowest detected quantities; (++), (+++), and (++++) signify relative increasing intermediate detected levels; (++), (+++), and (++++) signify relative increasing intermediate detected levels; (++), (+++), and (++++) signify relative increasing intermediate detected levels; (+++++) represents the highest detected quantities; No detectable levels of a glycosylated cannabinoid compound or glycosylated cannabinoid precursor compound are indicated by “n.d.”
Conditions: for production of glycosylated cannabinoids or cannabinoid precursor compounds: pellet or supernatant of recombinant yeast host cells transformed with the UGT; for CBD-glc: 0.5 g/L CBD
Source text: CN3 yeast strain host cells were transformed as described in Example 1 with one of the following heterologous UGT genes: (1) AtUGT73C6, (2) AtUGT73B4, (3) AtUGT71 D1, (4) AtUGT76E12, (5) AtUGT88A1, (6) HaUGT76G1-L, (7) At5g49690, (8) AtUGT76C4, (9) CsUGT73C6, (10) SrUGT76C1, (11) AtUGT85A3, (12) AtUGT73B1, (13) Atg65550, (14) AtUGT76B1, (15) ATUGT76B1, (16) CsUGT75B2, (17) CsUGT73B4, (18) CsUGT73B1, (19) CsUGT75D1-DN11028, and (20) CsUGT71D1-DN48028. The transformed host cells were pre-grown overnight in yeast extract peptone dextrose (YPD) growth medium and then back diluted into yeast extract peptone galactose (YPG) to OD600 = 0.2. […] Strains were incubated for 20 h at 28° C. rotating at 600 RPM in an EPOCH|2 microplate reader (BioTek). Subsequently, samples were treated with an extraction solvent (80 % Acetonitrile, 20 % Methanol) for 1 hour rotating at 100 RPM. After 20 minutes centrifugation at 12,000 RPM, the supernatant was filtered with a basix 13 mm syringe filter (0.22 µm pore size, Nylon membrane) and transferred to a new tube for further analysis.
Glycosylated cannabinoid compounds and glycosylated cannabinoid precursor compounds were assayed in the supernatant and the cellular pellet employing HPLC and HPLC-MS analysis. HPLC and HPLC-MS analysis was carried out as described below to detect the following glycosylated cannabinoid and cannabinoid precursor compounds: CBGA monoglucoside, CBGA diglucoside, CBDA monoglucoside, CBDA diglucoside, CBGA glucuronic acid, CBD monoglucoside, CBD diglucoside, olivetolic acid monoglucoside (“OliAcid monoglucoside”), olivetolic acid diglucoside (“OliAcid diglucoside”).
HPLC analysis was carried out on an Agilent Technologies 1290 Infinity system, consisting of a vacuum degasser, a binary pump, a thermostated autosampler, a thermostated column compartment and a diode array detector (DAD). A Zorbax Eclipse Plus EC-18 column (2.1 × 50 mm, 1.8 µm, Agilent, USA) was used with a mobile phase composed of 0.1% formic acid in both (A) water with 0.2 % Formic Acid and (B) Acetonitrile with 0.2 % Formic Acid. The chromatographic conditions were set as follows: 0.0-8.0 min linear gradient from 5 to 95% B; 8.1-9.09 min […], 9.10-11.0 min 5 to 95% A for equilibration of the column with the initial conditions. The flow rate was set at 0.4 ml/min. The column temperature was set at 40° C. The sample injection volume was 5 µL. The UV/DAD acquisitions were carried out in the range 190-400 nm and chromatograms were acquired at 265 and 350 nm.
HPLC-MS analysis was carried out to confirm the identity of the HPLC peaks using an Agilent Technologies 6530 Accurate-Mass quadrupole time of flight (QToF) mass spectrometer operating in negative ionization (ESI -) mode. The mass spectrometer experimental parameters were set as follows: the capillary voltage was 3.5 kV, the nebulizer (N2) pressure was 35 psi, the drying gas temperature was 350° C., the drying gas flow was 11 L/min and the skimmer voltage was 65 V. Data were acquired by Agilent Mass Hunter software. The mass spectrometer was operated in full-scan mode in the m/z range 50-1100. Extracted ion chromatograms (EICs) were obtained with an accuracy of 10 ppm m/z from total ion chromatogram (TIC) employing the m/z corresponding to the molecular ions [M-H]^- 385.1504 for Olivetolic Acid Mono-Glucoside, 547.2032 for Olivetolic Acid di-Glucoside, 521.2756 for CBGA Mono-Glucoside, 683.3284 for CBGA Di-Glucoside, 535.2549 for CBGA Glucuronic Acid, 519.2600 for CBDA Mono-Glucoside, 475.2701 for CBD Mono-Glucoside, 637.3302 for CBD Di-Glucoside.
The glycosylated cannabinoid compounds and glycosylated cannabinoid precursor compounds were detected in a relative and semi-quantitative fashion. […]

[1] = 20 h growth, detected in PELLET, 0.05 mM hexanoic acid
[2] = 20 h growth, detected in SUPERNATANT, 0.2 mM hexanoic acid

B1: AtUGT88A1: UDP-glycosyl transferase from Arabidopsis thaliana, amino acid sequence SEQ ID NO: 6 (protein, listed as Arabidopsis thaliana)
chain: MGEEAIVLYPAPPIGHLVSMVELGKTILSKNPSLSIHIILVPPPYQPESTATYISSVSSSFPSITFHHLPAVTPYSSSSTSRHHHESLLLEILCFSNPSVHRTLFSLSRNFNVRAMIIDFFCTAVLDITADFTFPVYFFYTSGAACLAFSFYLPTIDETTPGKNLKDIPTVHIPGVPPMKGSDMPKAVLERDDEVYDVFIMFGKQLSKSSGIIINTFDALENRAIKAITEELCFRNIYPIGPLIVNGRIEDRNDNKAVSCLNWLDSQPEKSVVFLCFGSLGLFSKEQVIEIAVGLEKSGQRFLWVVRNPPELEKTELDLKSLLPEGFLSRTEDKGMVVKSWAPQVPVLNHKAVGGFVTHCGWNSILEAVCAGVPMVAWPLYAEQRFNRVMIVDEIKIAISMNESETGFVSSTEVEKRVQEIIGECPVRERTMAMKNAAELALTETGSSHTALTTLLQSWSPK
In the case of B1, the CBGA-glc [1] is reported as “++”, the OLA-glc [1] is reported as “+” and the “production of glycosylated cannabinoids or cannabinoid precursor compounds” value (shortened to “production”) is reported as “detected”.

B2: CsUGT73C6: UDP-glycosyl transferase from Cannabis sativa, amino acid sequence SEQ ID NO: 16 (protein, listed as Cannabis sativa)
chain: MASEPYKLHLIVIPFMAPGHFIPMADMARKLAEHGAMITLITLPVIAARIRPIIEQATENSNLKIQLVQVSLPLHEFGLPEGCDTVDLVPSRNLLLSFFIALDELQQPIEQVVSELKPRPSCIIADKHLPWTAEIATKFGIPRVLFDGMSCFSLLCNHMIRKSQVHLSVPMSVPFVVPGMPDHLEFTRNQLAADLYPNLEFGQKFHDRIRESEEGADGFLVNSFEELEWKYVEGYRKEKVGKAWCIGPVSLFNKTKLEVAQRGNNPAGAVDEKQCTEWLDSWPKSCVVYACLGSVSRLLIPQMIELGVALEASNKPFIWVIRGYDQEEEIEKWISESGFKERTKSRALLIFGWAPQVLILSHSSVGGFLTHCGWNSTLEGITYGKPMITWPMFAEQFYNQKLIVQVLKVGESVGPKFVVPYGREEEFGVFVLSKDILEAIEKVMAQDKEGEERRERVKRLSDMAQKAIEEGGSSYLDMKLFIEDIRNLHIS
In the case of B2, the OLA-glc [1] is reported as “++”, the OLA-glc [2] is reported as “++” and the “production” value is reported as “detectable”.

B3: AtUGT76E12: UDP-glycosyl transferase from Arabidopsis thaliana, amino acid sequence SEQ ID NO: 14 (protein, listed as Arabidopsis thaliana)
chain: MQVLGMEEKPARRSVVLVPFPAQGHISPMMQLAKTLHLKGFSITVVQTKFNYFSPSDDFTHDFQFVTIPESLPESDFKNLGPIQFLFKLNKECKVSFKDCLGQLVLQQSNEISCVIYDEFMYFAEAAAKECKLPNIIFSTTSATAFACRSVFDKLYANNVQAPLKETKGQQEELVPEFYPLRYKDFPVSRFASLESIMEVYRNTVDKRTASSVIINTASCLESSSLSFLQQQQLQIPVYPIGPLHMVASAPTSLLEENKSCIEWLNKQKVNSVIYISMGSIALMEINEIMEVASGLAASNQHFLWVIRPGSIPGSEWIESMPEEFSKMVLDRGYIVKWAPQKEVLSHPAVGGFWSHCGWNSTLESIGQGVPMICRPFSGDQKVNARYLECVWKIGIQVEGELDRGVVERAVKRLMVDEEGEEMRKRAFSLKEQLRASVKSGGSSHNSLEEFVHFIRTL
In the case of B3, the CBGA-glc [1] is reported as “+++”, the OLA-glc [1] is reported as “+++” and the CBGA-glc [2] is reported as “+”. For the same molecule, the OLA-glc [2] was “+++” and the “production” value was “detected”.

B4: AtUGT76C4: UDP-glycosyl transferase from Arabidopsis thaliana, amino acid sequence SEQ ID NO: 12 (protein, listed as Arabidopsis thaliana)
chain: MEKSNGLRVILFPLPLQGCINPMIQLAKILHSRGFSITVIHTCFNAPKASSHPLFTFIQIQDGLSETETRTRDVKLLITLLNQNCESPVRECLRKLLQSAKEEKQRISCLINDSGWIFTQHLAKSLNLMRLAFNTYKISFFRSHFVLPQLRREMFLPLQDSEQDDPVEKFPPLRKKDLLRILEADSVQGDSYSDMILEKTKASSGLIFMSCEELDQDSLSQSREDFKVPIFAIGPSHSHFPASSSSLFTPDETCIPWLDRQEDKSVIYVSIGSLVTINETELMEIAWGLSNSDQPFLWVVRVGSVNGTEWIEAIPEYFIKRLNEKGKIVKWAPQQEVLKHRAIGGFLTHNGWNSTVESVCEGVPMICLPFRWDQLLNARFVSDVWMVGIHLEGRIERDEIERAIRRLLLETEGEAIRERIQLLKEKVGRSVKQNGSAYQSLQNLINYISSF
In the case of B4, the OLA-glc [1] is reported as “++” and the “production” value is reported as “detected”.

B5: AtUGT73B4: UDP-glycosyl transferase from Arabidopsis thaliana, amino acid sequence SEQ ID NO: 10 (protein, listed as Arabidopsis thaliana)
chain: MNREQIHILFFPFMAHGHMIPLLDMAKLFARRGAKSTLLTTPINAKILEKPIEAFKVQNPDLEIGIKILNFPCVELGLPEGCENRDFINSYQKSDSFDLFLKFLFSTKYMKQQLESFIETTKPSALVADMFFPWATESAEKIGVPRLVFHGTSSFALCCSYNMRIHKPHKKVASSSTPFVIPGLPGDIVITEDQANVTNEETPFGKFWKEVRESETSSFGVLVNSFYELESSYADFYRSFVAKKAWHIGPLSLSNRGIAEKAGRGKKANIDEQECLKWLDSKTPGSVVYLSFGSGTGLPNEQLLEIAFGLEGSGQNFIWVVSKNENQVGTGENEDWLPKGFEERNKGKGLIIRGWAPQVLILDHKAIGGFVTHCGWNSTLEGIAAGLPMVTWPMGAEQFYNEKLLTKVLRIGVNVGATELVKKGKLISRAQVEKAVREVIGGEKAEERRLRAKELGEMAKAAVEEGGSSYNDVNKFMEELNGRK
With B5 the “CBGA-(glc)2” value [1] was “++”, the CBGA-glc [1] was “++++” and the CBGA-glucuronic acid [1] was “++”. The “OLA-(glc)2” value [1] was “++”, the OLA-glc [1] was “++++” and the CBD-glc (20 h growth, detected in PELLET) was “++”. The CBGA-glc [2] was “++”, the “OLA-(glc)2” value [2] was “++” and the OLA-glc [2] was “+++++”. For the same molecule, the CBD-glc (20 h growth, detected in SUPERNATANT) was “++” and the “production” value was “detected”.

B6: HaUGT76G1L: UDP-glycosyl transferase from Helianthus annuus, amino acid sequence SEQ ID NO: 2 (protein, listed as Helianthus annuus)
chain: METQTETTNTVRRNRRIIFFPLPYQGHINPMLQLANLLYSKGFSITILHTNFNKPKTSNYPHFTFKFILDNDPHDGRYSNLPLHGMGAFNRVFVFNEDGADELRHELELLMLASKEDDEHVSCLITDALWHFTQSVADSLSLPRLVLRTSSLFSFLIYASIPLLDDRGYLSLSDNTMALILDGLGYHDLSDNKRLEEQVEEFPMLKVKDIVKMGFKREKDGAGGMIDNMVKQTKTSSGIIWNSFKELEESELETIRRDIPAPSFPIPFAKHFTASSSSLLEHDRSFFPWLDQQPPKSVVYVSFGSVAQVEEKHFMEMVHGLVDSKQLFLWVVRPGFVSGSTWLEPLPDGFPGERGRIVKWAPQQEVLGHEAIGAFWTHGGWNSTLESVCEGVPMICSPFWGDQPLDARYVSDVWKVGVYLENGWKREEITGAIRRVMTDEEMRERARVLKQKLDVSLMKGGSSYESVESLVAYVSSF
For B6, the CBDA-glc [1] was “++”, the OLA-glc [1] was “++” and the “production” value was “detected”.
